Experiment [1] deals with GP[change] with 12D insertion after residue A309 (Ebola virus).
Experiment [2] deals with GP[change] with 8D insertion after residue A309 (Ebola virus).

As for mAb114 (antibody), the fold increase in binding against WT-GPΔmucin in experiment [1] and in experiment [2] was 2 fold throughout.

Source of the values: patent US20240398929A1.
